The experiment concerns the target RGNNV capsid protein (CP) of the virus (red-spotted grouper nervous necrosis virus (RGNNV)).

B1: His-EcCXCR4b recombinant protein (pET-32a-EcCXCR4b) (receptor)
chain: MSYYEHIVFDYDLNDTGSGSGSGDMGVDLQELCDMEHVITDELQQVFLPVVYALIFILGITGNGLVVIVLGCQRRSKCSLTDRYRLHLSAADLLFVLALPFWAVDAALADWRFGEVTCVGVNVIYTVNLYGSVLILAFISLDRYLAVVRATDTNTGELRQLLAHKLVYVGAWLPAGLLAVPDLIYARTQEGGEGATLCQRFYPADNGPIWVAVFHLQLVLVGLVIPGLVLLVCYCVIVTRLTRGPLGGQRQKRRAVRTTIALVLCFFVCWLPYGAGISVDALLRLEVLPRSCRLEAILGVWLAVAEPMAFAHCCLNPLLYAFLGAGFKSSARRALTLSRASSLKILPRRRPGASTTTESESSSLHSS
Molecule B1 came in with a survival rate of groupers over 14 days after injection of RGNNV pre-incubated with His-EcCXCR4b protein (6× His control: 23.3%) of 73.3%.

For the origin of these results see publication PMC12691606.
